Measurements from article PMC5740061 (Nature Communications, 2017).

B1: SDGF-TB1G1 (TB1G1 displayed on 293F cells) [designed binder] / Biotinylated His-Avi-TEAD1(194–411) [modified: biotin (BirA-500 kit); biotin (BirA-500 kit)] [not stated] (parent complex)
chain 1: PDEYIERAKECCKKGDIQCCLRYFEESGDPNVMLICLFCP
chain 2: RSIGTTKLRLVEFSAFLEQQRDPDSYNKHLFVHIGHANHSYSDPLLESVDIRQIYDKFPEKKGGLKELFGKGPQNAFFLVKFWADLNCNIQDDAGAFYGVTSQYESSENMTVTCSTKVCSFGKQVVEKVETEYARFENGRFVYRINRSPMCEYMINFIHKLKHLPEKYMMNSVLENFTILLVVTNRDTQETLLCMACVFEVSNSEHGAQHHIYRLVKD

Variants of: B1
Test: mammalian (293F) surface display of a site-saturation mutagenesis library (every non-Cys single substitution), FACS sorting on biotinylated TEAD1 YBD, two sorting rounds, Illumina sequencing with perfect-match mapping; 20 nM biotinylated TEAD, monovalent 2-step stain (TEAD alone 30 min at 4 °C, dilute, pellet, then 20 nM streptavidin-Alexa Fluor 647), flow sorting on a BD Aria
For chain 1 PDEQIERAKECCKKGDIQCCLRYFEESGDPNVMLICLFCP [chain 1 Y4Q], the enrichment was 0.291 log2 (fold change of variant abundance after two TEAD sorts vs input, normalised to TB1G1).
In the case of chain 1 PDELIERAKECCKKGDIQCCLRYFEESGDPNVMLICLFCP [chain 1 Y4L], the enrichment is reported as -1.81 log2 (fold change of variant abundance after two TEAD sorts vs input, normalised to TB1G1).
chain 1 PDEDIERAKECCKKGDIQCCLRYFEESGDPNVMLICLFCP [chain 1 Y4D] was tested, and the enrichment was -1.79 log2 (fold change of variant abundance after two TEAD sorts vs input, normalised to TB1G1).
chain 1 PDEYIERAHECCKKGDIQCCLRYFEESGDPNVMLICLFCP [chain 1 K9H] was tested, and the enrichment was -1.5 log2 (fold change of variant abundance after two TEAD sorts vs input, normalised to TB1G1).
With chain 1 PDEYIERADECCKKGDIQCCLRYFEESGDPNVMLICLFCP [chain 1 K9D] the enrichment was -0.576 log2 (fold change of variant abundance after two TEAD sorts vs input, normalised to TB1G1).
In the case of chain 1 PDEYSERAKECCKKGDIQCCLRYFEESGDPNVMLICLFCP [chain 1 I5S], the enrichment is reported as -2.04 log2 (fold change of variant abundance after two TEAD sorts vs input, normalised to TB1G1).
For chain 1 PDEYIELAKECCKKGDIQCCLRYFEESGDPNVMLICLFCP [chain 1 R7L], the enrichment was -0.388 log2 (fold change of variant abundance after two TEAD sorts vs input, normalised to TB1G1).
chain 1 PDEYIEEAKECCKKGDIQCCLRYFEESGDPNVMLICLFCP [chain 1 R7E] was tested, and the enrichment was -0.163 log2 (fold change of variant abundance after two TEAD sorts vs input, normalised to TB1G1).
For chain 1 PHEYIERAKECCKKGDIQCCLRYFEESGDPNVMLICLFCP [chain 1 D2H], the enrichment was -1.05 log2 (fold change of variant abundance after two TEAD sorts vs input, normalised to TB1G1).
In the case of chain 1 PTEYIERAKECCKKGDIQCCLRYFEESGDPNVMLICLFCP [chain 1 D2T], the enrichment is reported as -0.52 log2 (fold change of variant abundance after two TEAD sorts vs input, normalised to TB1G1).
For chain 1 PFEYIERAKECCKKGDIQCCLRYFEESGDPNVMLICLFCP [chain 1 D2F], the enrichment was -3.41 log2 (fold change of variant abundance after two TEAD sorts vs input, normalised to TB1G1).
chain 1 PDEYIERFKECCKKGDIQCCLRYFEESGDPNVMLICLFCP [chain 1 A8F] was tested, and the enrichment was -4.33 log2 (fold change of variant abundance after two TEAD sorts vs input, normalised to TB1G1).
With chain 1 PDEYIERWKECCKKGDIQCCLRYFEESGDPNVMLICLFCP [chain 1 A8W] the enrichment was -5.46 log2 (fold change of variant abundance after two TEAD sorts vs input, normalised to TB1G1).
For chain 1 PDEYIKRAKECCKKGDIQCCLRYFEESGDPNVMLICLFCP [chain 1 E6K], the enrichment was -1.13 log2 (fold change of variant abundance after two TEAD sorts vs input, normalised to TB1G1).
For chain 1 PDEYIDRAKECCKKGDIQCCLRYFEESGDPNVMLICLFCP [chain 1 E6D], the enrichment was -0.602 log2 (fold change of variant abundance after two TEAD sorts vs input, normalised to TB1G1).
For chain 1 PDEYINRAKECCKKGDIQCCLRYFEESGDPNVMLICLFCP [chain 1 E6N], the enrichment was -0.816 log2 (fold change of variant abundance after two TEAD sorts vs input, normalised to TB1G1).
chain 1 PDEYIRRAKECCKKGDIQCCLRYFEESGDPNVMLICLFCP [chain 1 E6R] was tested, and the enrichment was -1.78 log2 (fold change of variant abundance after two TEAD sorts vs input, normalised to TB1G1).
chain 1 PDWYIERAKECCKKGDIQCCLRYFEESGDPNVMLICLFCP [chain 1 E3W] was tested, and the enrichment was -1.4 log2 (fold change of variant abundance after two TEAD sorts vs input, normalised to TB1G1).
For chain 1 PDNYIERAKECCKKGDIQCCLRYFEESGDPNVMLICLFCP [chain 1 E3N], the enrichment was 0.579 log2 (fold change of variant abundance after two TEAD sorts vs input, normalised to TB1G1).
chain 1 PDKYIERAKECCKKGDIQCCLRYFEESGDPNVMLICLFCP [chain 1 E3K] was tested, and the enrichment was -0.5 log2 (fold change of variant abundance after two TEAD sorts vs input, normalised to TB1G1).
With chain 1 VDEYIERAKECCKKGDIQCCLRYFEESGDPNVMLICLFCP [chain 1 P1V] the enrichment was -0.595 log2 (fold change of variant abundance after two TEAD sorts vs input, normalised to TB1G1).
In the case of chain 1 LDEYIERAKECCKKGDIQCCLRYFEESGDPNVMLICLFCP [chain 1 P1L], the enrichment is reported as -2.9 log2 (fold change of variant abundance after two TEAD sorts vs input, normalised to TB1G1).
